Assay [1] deals with feline immunodeficiency virus (FIV) Env, Villefranche strain, expressed by ALVAC recombinants vCP242 / vCP255 (feline immunodeficiency virus, Villefranche strain). Put plainly: sandwich kinetic ELISA, plate coated with pooled FIV env-specific MAb 2 ug/well, env lysate 0.2 ug/well, control rabbit serum 1:100. (In general: ELISA stands for enzyme-linked immunosorbent assay.)
For assay [2] the target is unchanged. Put plainly: sandwich kinetic ELISA, plate coated with pooled FIV gag-specific MAb 2 ug/well (mismatched capture control), env lysate 0.2 ug/well, control rabbit serum 1:100.
For assay [3] the target is unchanged. The assay can be described thus: sandwich kinetic ELISA, plate coated with pooled FIV env-specific MAb 2 ug/well, env lysate 5 ug/well, control rabbit serum 1:100.
The target is the same in assay [4]. The assay can be described thus: sandwich kinetic ELISA, plate coated with pooled FIV gag-specific MAb 2 ug/well (mismatched capture control), env lysate 5 ug/well, control rabbit serum 1:100.
Assay [5] shares this target. The assay can be described thus: sandwich kinetic ELISA, plate coated with pooled FIV gag-specific MAb 2 ug/well (mismatched capture control), env lysate 1 ug/well, control rabbit serum 1:100.
Assay [6] has the same target. Put plainly: sandwich kinetic ELISA, plate coated with pooled FIV env-specific MAb 2 ug/well, env lysate 1 ug/well, control rabbit serum 1:100.

Regarding Rabbit A039 prebleed serum, the KELISA (mOD/min) in assay [1] came out at 0.9 mOD/min; in assay [2], 1 mOD/min; in assay [3] it was 0.9 mOD/min; in assay [4], 1 mOD/min; in assay [5], 1.2 mOD/min; in assay [6], 0.7 mOD/min.
